Data: publication PMC10397247

How the values were obtained:
[1] = target: T1, 4H56-bA; experiment: two-hybrid library CCNG1;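 also: natural log of median RNA to DNA barcode read ratio; higher means stronger binding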
T1 chain: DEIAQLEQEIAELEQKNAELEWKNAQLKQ

[2] = target: T2, 4H264-bA; experiment: two-hybrid library CCNG1;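 also: natural log of median RNA to DNA barcode read ratio; higher means stronger binding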
T2 chain: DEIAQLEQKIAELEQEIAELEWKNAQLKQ

[3] = target: T3, 4H949-bA; experiment: two-hybrid library CCNG1;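 also: natural log of median RNA to DNA barcode read ratio; higher means stronger binding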
T3 chain: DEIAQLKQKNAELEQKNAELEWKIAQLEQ

[4] = target: T4, 4H3297-bA; experiment: two-hybrid library CCNG1;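 also: natural log of median RNA to DNA barcode read ratio; higher means stronger binding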
T4 chain: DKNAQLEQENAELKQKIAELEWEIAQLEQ

[5] = target: T5, 4H932-bA; experiment: two-hybrid library CCNG1;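 also: natural log of median RNA to DNA barcode read ratio; higher means stronger binding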
T5 chain: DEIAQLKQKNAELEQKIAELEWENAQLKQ

[6] = target: T6, 4H730-bA; experiment: two-hybrid library CCNG1;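 also: natural log of median RNA to DNA barcode read ratio; higher means stronger binding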
T6 chain: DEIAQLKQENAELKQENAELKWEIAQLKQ

[7] = target: T7, 4H855-bH; experiment: two-hybrid library CCNG1
T7 chain: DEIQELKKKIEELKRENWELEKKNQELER

[8] = target: T8, 4H3381-bA; experiment: two-hybrid library CCNG1
T8 chain: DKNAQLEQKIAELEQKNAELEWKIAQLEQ

[9] = target: T9, 4H235-bA; experiment: two-hybrid library CCNG1
T9 chain: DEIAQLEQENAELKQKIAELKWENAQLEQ

[10] = target: T10, 4H3364-bA; experiment: two-hybrid library CCNG1
T10 chain: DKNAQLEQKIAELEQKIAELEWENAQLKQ

[11] = target: T11, 4H2253-bA; experiment: two-hybrid library CCNG1
T11 chain: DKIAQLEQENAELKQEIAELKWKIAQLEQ

[12] = target: T12, 4H2233-bA; experiment: two-hybrid library CCNG1
T12 chain: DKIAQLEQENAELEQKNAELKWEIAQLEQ

[13] = target: T13, 4H2518-bA; experiment: two-hybrid library CCNG1
T13 chain: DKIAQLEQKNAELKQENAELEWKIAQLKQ

[14] = target: T14, 4H2760-bA; experiment: two-hybrid library CCNG1
T14 chain: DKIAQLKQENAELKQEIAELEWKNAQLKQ

[15] = target: T15, 4H796-bA; experiment: two-hybrid library CCNG1
T15 chain: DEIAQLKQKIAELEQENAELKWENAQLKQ

[16] = target: T16, 4H2859-bA; experiment: two-hybrid library CCNG1
T16 chain: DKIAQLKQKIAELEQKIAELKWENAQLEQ

[17] = target: T17, 4H2585-bA; experiment: two-hybrid library CCNG1
T17 chain: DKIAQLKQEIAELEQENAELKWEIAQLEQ

[18] = target: T18, 4H2931-bA; experiment: two-hybrid library CCNG1
T18 chain: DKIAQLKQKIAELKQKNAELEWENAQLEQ

[19] = target: T19, 4H2162-bA; experiment: two-hybrid library CCNG1
T19 chain: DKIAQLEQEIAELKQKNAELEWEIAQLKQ

[20] = target: T20, 4H3041-bA; experiment: two-hybrid library CCNG1
T20 chain: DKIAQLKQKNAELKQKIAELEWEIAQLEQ

[21] = target: T21, 4H349-bA; experiment: two-hybrid library CCNG1
T21 chain: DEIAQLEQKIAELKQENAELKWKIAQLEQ

[22] = target: T22, 4H2444-bA; experiment: two-hybrid library CCNG1
T22 chain: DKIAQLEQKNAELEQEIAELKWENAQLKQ

[23] = target: T23, 4H2124-AA; experiment: two-hybrid library CCmax; details: mean of both orientations
T23 chain: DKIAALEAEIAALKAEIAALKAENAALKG

[24] = target: T24, 4H2732-AA; experiment: two-hybrid library CCmax; details: mean of both orientations
T24 chain: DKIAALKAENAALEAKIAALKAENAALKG

[25] = target: T25, 4H1821-AA; experiment: two-hybrid library CCmax; details: mean of both orientations
T25 chain: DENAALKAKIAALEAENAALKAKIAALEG

[26] = target: T26, 4H452-AA; experiment: two-hybrid library CCmax; details: mean of both orientations
T26 chain: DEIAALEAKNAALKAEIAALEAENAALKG

[27] = target: T27, 4H175-AA; experiment: two-hybrid library CCmax
T27 chain: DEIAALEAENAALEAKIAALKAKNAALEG

[28] = target: T28, 4H_APH; experiment: two-hybrid library CCmax
T28 chain: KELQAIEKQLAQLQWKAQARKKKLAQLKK

[29] = target: T29, 4H1828-AA; experiment: two-hybrid library CCmax; details: mean of both orientations
T29 chain: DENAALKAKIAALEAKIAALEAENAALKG

[30] = target: T30, 4H2931-AA; experiment: two-hybrid library CCmax; details: mean of both orientations
T30 chain: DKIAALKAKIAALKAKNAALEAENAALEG

[31] = target: T31, 4H2253-AA; experiment: two-hybrid library CCmax; details: mean of both orientations
T31 chain: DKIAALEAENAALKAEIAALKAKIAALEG

[32] = target: T32, 4H347-AA; experiment: two-hybrid library CCmax
T32 chain: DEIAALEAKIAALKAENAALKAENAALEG

[33] = target: T33, 4H3438-AA; experiment: two-hybrid library CCmax; details: mean of both orientations
T33 chain: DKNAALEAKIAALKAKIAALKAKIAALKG

[34] = target: T34, 4H3001-AA; experiment: two-hybrid library CCmax; details: mean of both orientations
T34 chain: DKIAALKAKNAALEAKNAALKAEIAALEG

[35] = target: GCN2_T; experiment: two-hybrid library CCmax
[36] = target: T35, 4H249-AA; experiment: two-hybrid library CCmax; details: mean of both orientations
T35 chain: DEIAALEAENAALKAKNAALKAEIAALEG

[37] = target: T36, 4H1930-AA; experiment: two-hybrid library CCmax; details: mean of both orientations
T36 chain: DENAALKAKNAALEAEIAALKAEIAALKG

[38] = target: T37, 4H3015-AA; experiment: two-hybrid library CCmax; details: mean of both orientations
T37 chain: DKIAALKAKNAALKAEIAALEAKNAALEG

[39] = target: 4H_GCN4; experiment: two-hybrid library CCmax
Sequence of 4H_GCN4 (chain, as listed by the source): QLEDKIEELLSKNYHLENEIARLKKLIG

[40] = target: T38, 4H2774-AA; experiment: two-hybrid library CCmax; details: mean of both orientations
T38 chain: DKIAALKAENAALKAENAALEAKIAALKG

[41] = target: T39, 4H2165-AA; experiment: two-hybrid library CCmax; details: mean of both orientations
T39 chain: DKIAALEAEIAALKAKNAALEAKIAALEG

[42] = target: T40, 4H1765-AA; experiment: two-hybrid library CCmax; details: mean of both orientations
T40 chain: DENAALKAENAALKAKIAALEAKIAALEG

[43] = target: T41, 4H2343-AA; experiment: two-hybrid library CCmax; details: mean of both orientations
T41 chain: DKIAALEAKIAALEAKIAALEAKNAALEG

[44] = target: T42, 4H2592-AA; experiment: two-hybrid library CCmax; details: mean of both orientations
T42 chain: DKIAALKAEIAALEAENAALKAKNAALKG

[45] = target: T43, 4H2330-AA; experiment: two-hybrid library CCmax; details: mean of both orientations
T43 chain: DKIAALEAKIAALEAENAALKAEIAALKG

[46] = target: T44, 4H3073-AA; experiment: two-hybrid library CCmax
T44 chain: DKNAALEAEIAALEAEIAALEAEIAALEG

[47] = target: T45, 4H_BCR; experiment: two-hybrid library CCmax; details: mean of both orientations
T45 chain: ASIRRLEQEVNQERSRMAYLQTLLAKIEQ

[48] = target: T46, 4H56-AA; experiment: two-hybrid library CCmax; details: mean of both orientations
T46 chain: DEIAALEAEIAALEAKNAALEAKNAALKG

[49] = target: T47, 4H2466-AA; experiment: two-hybrid library CCmax; details: mean of both orientations
T47 chain: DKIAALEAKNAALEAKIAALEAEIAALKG

[50] = target: T48, 4H406-AA; experiment: two-hybrid library CCmax; details: mean of both orientations
T48 chain: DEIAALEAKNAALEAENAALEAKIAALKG

DKIAQLEQEIAELKQKNAELEWEIAQLKQ [4H2162-bA]
interaction score [1]: 0.371
interaction score [2]: -1.08
interaction score [3]: -0.448
interaction score [4]: -0.125
interaction score [5]: -1.48
interaction score [6]: 0.193
interaction score [7]: -2.4
interaction score [8]: -1.2
interaction score [9]: 0.118
interaction score [10]: -0.464
interaction score [11]: -0.158
interaction score [12]: 0.431
interaction score [13]: 0.642
interaction score [14]: -0.382
interaction score [15]: -1.31
interaction score [16]: 0.326
interaction score [17]: -0.85
interaction score [18]: 1.13
interaction score [19]: 0.667
interaction score [20]: 1.37
interaction score [21]: 0.82
interaction score [22]: 0.102

DEIAALEAENAALEAKIAALKAKNAALEG [4H175-AA]
interaction score [23]: -1.39
interaction score [24]: -0.776
interaction score [25]: -1.36
interaction score [26]: 0.385
interaction score [27]: -0.721
interaction score [28]: -0.714
interaction score [29]: -1.69
interaction score [30]: -1.11
interaction score [31]: -0.981
interaction score [32]: -1.44
interaction score [33]: -0.317
interaction score [34]: -0.307
interaction score [35]: -0.991
interaction score [36]: 0.000294
interaction score [37]: -1.75
interaction score [38]: 2.21
interaction score [39]: -1
interaction score [40]: -0.332
interaction score [41]: -1.43
interaction score [42]: -1.18
interaction score [43]: -1.82
interaction score [44]: -1.32
interaction score [45]: -1.68
interaction score [46]: -2.69
interaction score [47]: -2.06
interaction score [48]: -1.56
interaction score [49]: -1.58
interaction score [50]: -1.39
